Experimental data reported in patent US20230088269A1 (ARGENX BVBA, published 2023).

T1: rhIL22R-Fc (rhesus IL22R ECD fused to human Fc) (rhesus monkey, UniProt G7MHN4 16-228)
T1 construct: also called rhesus IL-22R1
T1 sequence: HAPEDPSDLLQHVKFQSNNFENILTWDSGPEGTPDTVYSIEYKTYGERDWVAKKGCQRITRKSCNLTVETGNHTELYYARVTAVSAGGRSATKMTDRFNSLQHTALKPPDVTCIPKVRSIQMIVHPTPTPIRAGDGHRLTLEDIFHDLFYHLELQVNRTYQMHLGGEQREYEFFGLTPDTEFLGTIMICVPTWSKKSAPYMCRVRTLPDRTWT

T2: recombinant human IL-22R (R&D Systems / Biotechne 2770-LR) (human, UniProt Q8N6P7 16-228)
T2 construct: Bought soluble recombinant protein (said to be 25 kDa); also called hIL22R; IL-22R1
T2 sequence: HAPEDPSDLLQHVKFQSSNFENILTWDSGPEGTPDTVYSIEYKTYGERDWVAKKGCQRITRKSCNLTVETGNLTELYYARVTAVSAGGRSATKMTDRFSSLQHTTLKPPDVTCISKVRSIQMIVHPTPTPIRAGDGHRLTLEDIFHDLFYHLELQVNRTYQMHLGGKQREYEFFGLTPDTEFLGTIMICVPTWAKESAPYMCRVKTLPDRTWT

T3: recombinant mouse IL22R (monomeric, R&D Systems cat 4248-MR) (mouse, UniProt Q80XZ4 16-230)
T3 construct: extracellular domain; also called murine IL-22R; mIL22R
T3 sequence (looked up): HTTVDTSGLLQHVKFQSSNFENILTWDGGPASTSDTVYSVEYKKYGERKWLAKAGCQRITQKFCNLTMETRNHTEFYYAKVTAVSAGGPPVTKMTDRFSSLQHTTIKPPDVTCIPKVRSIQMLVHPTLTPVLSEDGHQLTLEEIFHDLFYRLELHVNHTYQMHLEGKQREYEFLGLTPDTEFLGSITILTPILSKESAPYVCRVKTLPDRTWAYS

T4: human IL-22R expressed on cells (BW-hIL22R, Baf3-hIL22R/IL20Rb, transfected HEK, primary human skin cells) (human, UniProt Q8N6P7 16-574)
T4 sequence: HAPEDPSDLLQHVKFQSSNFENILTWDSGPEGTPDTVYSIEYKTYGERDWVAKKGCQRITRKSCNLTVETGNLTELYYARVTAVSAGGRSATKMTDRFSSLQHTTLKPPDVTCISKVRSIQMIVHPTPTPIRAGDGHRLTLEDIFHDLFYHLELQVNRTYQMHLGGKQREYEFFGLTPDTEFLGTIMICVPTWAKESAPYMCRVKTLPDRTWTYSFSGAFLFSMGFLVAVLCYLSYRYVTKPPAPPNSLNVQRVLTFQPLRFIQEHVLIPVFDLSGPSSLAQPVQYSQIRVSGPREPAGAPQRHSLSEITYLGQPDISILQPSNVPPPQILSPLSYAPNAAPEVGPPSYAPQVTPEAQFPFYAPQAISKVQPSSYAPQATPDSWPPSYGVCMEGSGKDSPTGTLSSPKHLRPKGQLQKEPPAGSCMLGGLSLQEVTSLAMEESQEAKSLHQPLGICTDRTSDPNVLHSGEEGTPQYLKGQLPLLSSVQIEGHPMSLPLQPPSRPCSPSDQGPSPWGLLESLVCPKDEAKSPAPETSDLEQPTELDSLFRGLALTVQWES

B1: 223G5 Fab (Fab, V domains shown)
VH: QVQLVESGGGLVQPGGSLRLSCAASGFTFSSYFMSWVRQAPGKGPEWVSGIHISGGITYYTDSVKGRFTISRDNAKNTLYLQMNSLRAEDTAVYYCVTPPGPFKAHYNGAKYWGKGTLVTVSS
VL: QSALTQPPSVSGSPGQSVTISCTGTSSDIGSYNYVSWYQQLPGKAPKLLIYEVNKRSSGVPDRFSGSKSGNTASLTISGLQAEDEADYYCASYRLYADYVFGGGTQLTVL
notes: Germlined variant of 166G8
B2: 166G8 mAb (antibody, IgG1, V domains shown)
VH: QVQLVESGGGLVQPGDSLRLSCAASGFTFGSYFMSWVRQAPGKGPEWVSGIHISGGITYYLDSVKGRFTISRDNAKNTLYLQMNNLKPEDTAVYYCVTPPGPFKAHYNGMKYWGKGTLVTVSS
VL: NFMLTQPPSVSGTLGKTVTISCTGTSRDIGDYNYVSWYQQLPGLAPKLLIYKVNTRSSGTPDRFSGSKSGNTASLTISGLQSEDEADYYCASYRLYADYVFGGGTHLTVL
notes: VH family 5; produced as IgG1 with human constant domains
B3: 280.346.TSY (benchmark humanised IL-22R antibody of WO2011/061119) (antibody, V domains shown)
VH: EVQLVESGGGLVQPGGSLRLSCAASGYSITAEYMNWVRQAPGKGLEWIGEINPSTGTTTYNQKFKGRFTISVDQSKNTAYLQMNSLRAEDTAVYYCARFDAYFDYWGQGTLVTVSS
VL: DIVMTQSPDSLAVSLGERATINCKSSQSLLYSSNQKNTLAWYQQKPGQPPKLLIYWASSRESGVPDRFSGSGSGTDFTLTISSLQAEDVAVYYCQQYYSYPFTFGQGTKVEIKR
B4: 157A2 Fab (Fab, V domains shown)
VH: QVQLVESGGGLVQPGGSLRLSCAASGFTFSSYDMSWVRQAPGKGLEWVSSIYNDGSNTAYSDSVKGRFTISRDNAKNTLYLQMNSLKSEDTAVYYCAKVGFSGTYYSESWGQGTQVTVSS
VL: NFMLTQPSAVSVSLGQTAKITCQGGYYAHWYQQKPGQAPVLVIYGNNNRPSGIPERFSGSSSGNTATLTISGAQAEDEAEYYCQSGSSSANAVFGGGTHLTVL
notes: VH family 4; purified llama Fab
B5: 230C9 Fab (Fab, V domains shown)
VH: QVQLVESGGGLVQPGGSLRLSCAASGFTFSSYDMNWVRQAPGKGLEWVSSIYNDASNTAYSDSVKGRFTISRDNSKNTLYLQMNSLRAEDTAVYYCAKVGFSGTYYSESWGQGTLVTVSS
VL: SYELTQPSSVSVALGQTARITCQGGYYAHWYQQKPGQAPVLVIYGQNNRPSGIPERFSGSGAGNTATLTISRAQAEDEADYYCQSGSSSSNAVFGGGTKLTVL
notes: Germlined variant of 218A7
B6: 218A7 Fab (Fab, V domains shown)
VH: QVQLVESGGGLVQPGGSLRLSCAASGFTFSSYDMSWVRQAPGKGLEWVSSIYNDGSNTAYSDSVKGRFTISRDNAKNTLYLQMNSLKSEDTAVYYCAKVGFSGTYYSESWGQGTQVTVSS
VL: LPVLTQPSAVSVSLGQTARITCQGGYYAHWYQQKPGQAPVLVIYGQNNRPSGIPERFSGSGAGNTATLTISGAQAEDEAEYYCQSGSSSANAVFGGGTKLTVL
notes: Light chain shuffled variant of 157A2
B7: 157A2 mAb (antibody, IgG1, V domains shown)
VH: QVQLVESGGGLVQPGGSLRLSCAASGFTFSSYDMSWVRQAPGKGLEWVSSIYNDGSNTAYSDSVKGRFTISRDNAKNTLYLQMNSLKSEDTAVYYCAKVGFSGTYYSESWGQGTQVTVSS
VL: NFMLTQPSAVSVSLGQTAKITCQGGYYAHWYQQKPGQAPVLVIYGNNNRPSGIPERFSGSSSGNTATLTISGAQAEDEAEYYCQSGSSSANAVFGGGTHLTVL
notes: VH family 4; produced as IgG1 with human constant domains
B8: 170B2 mAb (antibody, V domains shown)
VH: EVQLVESGGGLVQPGGSLRLSCAASGFTFSSSWMYWVRQAPGKGLEFVSVINTRSGITHYVESVKGRFTISTDNAKNTLFLQMNSLKSEDTAVYYCATRIQGLIDYWGQGTQVTVSS
VL: DIVMTQSPSSLSVSLGDRVTITCQASQSIGSVNALAWYQQKPGQSLKLLIHGASRLQTGVPSRFSGSGSGTSFTLAISGVEAEDLATYYCLQDYAWPLTFGQGTKVELK

How the values were obtained:
[1] = target: T1, rhIL22R-Fc (rhesus IL22R ECD fused to …); assay: off-rate of Fab fragment; method not stated
[2] = target: T2, recombinant human IL-22R (R&D Systems / …); assay: off-rate of Fab fragment; method not stated
[3] = target: T2, recombinant human IL-22R (R&D Systems / …); assay: SPR (Biacore 3000), IL22R on CM5 chip, IgG1 injected
Protocol: In addition to the potency on cells, the in vitro binding kinetics and blocking activity of the purified antibodies were measured in Biacore (3000). […] Antibodies tested at a range of concentrations and prepared in HBSEP buffer at pH 7.4 (Biacore) were injected at 30 μl/min for 60 second and washed with HBSEP buffer at pH 7.4 (Biacore) for 10-20 min. The obtained sensograms were analyzed with the BIAevaluation software and kinetics were determined using standard fitting (Langmuir 1:1 with mass transfer).

[4] = target: T3, recombinant mouse IL22R (monomeric, R&D …); assay: ELISA and SPR (Biacore), mAb
Protocol: After production and purification of the cyIL22R-Fc and the rhIL22R-Fc, the binding specificity to cynomolgus, rhesus and mouse IL22R ECD of all the antibodies from primary selection was tested in ELISA and by SPR (Biacore). Monomeric mouse IL22R was purchased from R&D Systems (cat 4248-MR).

[5] = target: T4, human IL-22R expressed on cells …; assay: cell-based or functional assay
[6] = target: T4, human IL-22R expressed on cells …; assay: cell-based or functional assay; remark: listed apart in the source
[7] = target: rhesus IL22R ECD - human TM - human ICD chimera on transfected HEK cells (rhesus monkey; human, UniProt Q8N6P7 229-574); assay: cell-based or functional assay
[8] = target: cynoIL22R_ECD-humanTM_humanICD chimera on transfected cells (cynomolgus monkey; human, UniProt Q8N6P7 229-574); assay: cell-based or functional assay
[9] = target: T4, human IL-22R expressed on cells …; assay: cell-based or functional assay; remark: listed apart in the source
[10] = target: T2, recombinant human IL-22R (R&D Systems / …); assay: SPR (Biacore), hIL22R on CM5 chip, mAb injected, 1:1 Langmuir
Protocol: The affinity of the 230C9 and 223G5 antibodies was measured using SPR ([…]). In brief, 250RU of human IL22R (Biotechne, 2770-LR) was coated onto a CM5 chip using standard methods (EDC coupling of IL22R at a concentration of 2 μg/ml in acetate buffer pH4.5). Then various concentrations of antibody were injected in HBSEP+ buffer (pH 7.4) for 2 minutes. The binding was monitored also during a 10 min washing (HBSEP+).

[11] = target: T2, recombinant human IL-22R (R&D Systems / …); assay: SPR (Biacore), purified Fab
[12] = target: T3, recombinant mouse IL22R (monomeric, R&D …); assay: SPR (Biacore), purified Fab

Binder	koff [1] [s⁻¹]	koff [2] [s⁻¹]	Kd [3] [nM]	koff [3] [s⁻¹]	kon [3] [M⁻¹ s⁻¹]	further results
B1	0.00584	0.000529	–	–	–	–
B2	–	–	0.022	0.0002	9.2e+06	binding result [4]: no binding
B3	–	–	0.24	6.4e-05	270000	IC50 blocking IL-20 (nM), Baf3hIL22R/IL20Rb cell line [5]: 1.49 nM; EC50 (nM), STAT3-reporter in HEK cells after human IL22, Human ECD [6]: 0.26 nM; EC50 (nM), STAT3-reporter in HEK cells after human IL22, Rhesus ECD [7]: 0.43 nM; EC50 (nM), STAT3-reporter in HEK cells after human IL22, Cyno ECD [8]: 0.16 nM; IC50 blocking IL-22 (nM), BWhIL22R cell line [9]: 0.69 nM; Relative potency to 280.346.TSY (IL-22, BWhIL22R cell line) [9]: 1 fold; Kd [10]: 0.69 nM; koff [10]: 0.00034 s⁻¹; kon [10]: 490000 M⁻¹ s⁻¹
B4	–	–	–	–	–	koff [11]: 0.0037 s⁻¹; binding result [12]: no binding
B5	0.000436	0.000352	–	–	–	–
B6	0.00097	0.00081	–	–	–	–
B7	–	–	2.8	0.0011	390000	binding result [4]: no binding
B8	–	–	0.12	9.3e-05	760000	–
